Data from US20160015831A1 (BIOALLIANCE C V, published 2016).
Each block holds one binder with its values, some of them ahead of it.

Assays:
human CD22 [1] = target: T1, human CD22 (human, UniProt P20273 20-847); assay: flow cytometry, Daudi cells, Tap18Hr1 conjugate 3.3 µg/mL
T1 construct: Endogenous CD22 on human cell lines Daudi, Raji, Ramos, RL, REH and NALM-6; no signal peptide limits are stated; also called antigen CD22
Experimental: (§1) 6×10⁴˜1×10⁵ cells were seeded per well in a v-bottomed 96-well plate and incubated with 100 μl of the unconjugated Abs or the ADCs at titrated concentrations or isotype control antibody human IgG at 10 μg/mL. After 30-60 minutes of incubation at 4° C., cells were washed once with 200 μl FACS buffer (lx PBS containing 1% FBS), stained with 100 μl of 1 μg/ml goat F(ab′)2-anti-human IgG (H+L)-RPE (Southern Biotech, Cat. No. 2043-09) in FACS buffer and then incubated at 4° C. for 30˜60 min Cells were washed once with FACS buffer and analyzed by flow cytometer (BD LSR, BD Life Sciences).
(§2) The binding ability of hLL2-Cys variants with or without drug conjugation was evaluated in Daudi and REH cancer cells.

human CD22 [2] = target: T1, human CD22; assay: flow cytometry, REH cells, Tap18Hr1 conjugate 3.3 µg/mL
Experimental: as §1, §2

human CD22 [3] = target: T1, human CD22; assay: flow cytometry, Daudi cells, Tap18Hr1 conjugate 3.3 µg/mL; remark: listed apart in the source
Experimental: as §1
(§3) In general, the site-specific conjugated hLL2-IgG4p ADCs retained antigen reactivity of antibody.

human CD22 [4] = target: T1, human CD22; assay: flow cytometry, REH cells, Tap18Hr1 conjugate 3.3 µg/mL; remark: listed apart in the source
Experimental: as §1, §3

human CD22 [5] = target: T1, human CD22; assay: cell-based or functional assay

MFI (human CD22 [1]): 1400
MFI (human CD22 [2]): 104
MFI (human CD22 [3]): 1400
MFI (human CD22 [4]): 104
B1: hLL2-IgG1-Tap18Hr1 (antibody)
heavy: not shown
light: DIQLTQSPSSLSASVGDRVTMSCKSSQSVLYSANHKNYLAWYQQKPGKAPKLLIYWASTRESGVPSRFSGSGSGTDFTFTISSLQPEDIATYYCHQYLSSWTFGGGTKLEIKRTVAAPSVFIFPPSDEQLKSGTASVVCLLNNFYPREAKVQWKVDNALQSGNSQESVTEQDSKDSTYSLSSTLTLSKADYEKHKVYACEVTHQGLSSPVTKSFNRGEC
modifications: Tap18Hr1 linker-drug on cysteine thiols of the partially reduced antibody (light chain with 0 or 1 drug); sites not stated; Tap18Hr1 linker-drug (monomethyl dolastatin 10) on cysteine thiols of the partially reduced antibody, conventional conjugation, DAR 2.7-3.5; sites not stated
notes: also called Anti-hLL2-IgG1-Tap18Hr1; Anti-CD22 (hLL2)-IgG1-Tap18Hr1

MFI (human CD22 [1]): 1230
MFI (human CD22 [2]): 94
B2: hLL2-S157C-IgG1-Tap18Hr1 (antibody)
heavy: not shown
light: B1 light
modifications: Tap18Hr1 linker-drug (monomethyl dolastatin 10) on the introduced Cys 157 (EU numbering); site-specific conjugation, DAR 1.58-2.01
notes: also called hLL2-S157C-IgG1 Tap18Hr1 conjugate
% inhibition, WST-1 cytotoxicity, Daudi cells, 1.1 µg/mL (human CD22 [5]): 76.3%
% inhibition, WST-1 cytotoxicity, Daudi cells, 3.3 µg/mL (human CD22 [5]): 79.4%
% inhibition, WST-1 cytotoxicity, Ramos cells, 1.1 µg/mL (human CD22 [5]): 90.4%
% inhibition, WST-1 cytotoxicity, Ramos cells, 3.3 µg/mL (human CD22 [5]): 93.9%

MFI (human CD22 [1]): 914
MFI (human CD22 [2]): 87
B3: hLL2-S442C-IgG1-Tap18Hr1 (antibody)
heavy: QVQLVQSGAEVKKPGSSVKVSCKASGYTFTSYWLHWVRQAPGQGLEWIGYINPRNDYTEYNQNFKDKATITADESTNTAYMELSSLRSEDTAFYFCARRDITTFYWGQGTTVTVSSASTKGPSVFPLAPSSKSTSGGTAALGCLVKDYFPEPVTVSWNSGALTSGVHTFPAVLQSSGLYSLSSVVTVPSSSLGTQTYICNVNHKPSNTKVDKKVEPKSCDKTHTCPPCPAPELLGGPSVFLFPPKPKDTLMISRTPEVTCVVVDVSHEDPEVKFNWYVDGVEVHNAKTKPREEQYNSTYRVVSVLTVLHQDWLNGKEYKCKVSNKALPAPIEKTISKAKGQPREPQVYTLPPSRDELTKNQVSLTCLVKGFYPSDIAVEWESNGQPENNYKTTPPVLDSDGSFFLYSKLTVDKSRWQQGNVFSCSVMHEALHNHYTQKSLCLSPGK
light: B1 light
modifications: Tap18Hr1 linker-drug (monomethyl dolastatin 10) on the introduced Cys 442 (EU numbering); site-specific conjugation, DAR 1.58-2.01
notes: also called hLL2-S442C-IgG1 Tap18Hr1 conjugate
% inhibition, WST-1 cytotoxicity, Daudi cells, 1.1 µg/mL (human CD22 [5]): 77.6%
% inhibition, WST-1 cytotoxicity, Daudi cells, 3.3 µg/mL (human CD22 [5]): 79%
% inhibition, WST-1 cytotoxicity, Ramos cells, 1.1 µg/mL (human CD22 [5]): 92%
% inhibition, WST-1 cytotoxicity, Ramos cells, 3.3 µg/mL (human CD22 [5]): 96%
